Data reported in the supplement of paper PMC12764529.
± gives the half width of the 95% confidence interval.

Columns and labels:
[1] = folding stability dG unfold from chymotrypsin proteolysis; higher = more stable
How it was run: (§1)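 Designed mini-proteins (under 80 residues, no cysteine) in a PA-tagged cDNA display construct were digested with trypsin and chymotrypsin. Each protease was used at 11 concentrations (threefold dilutions) plus a no-protease condition, followed by sequencing. K50 was inferred by Bayesian fitting of sequencing counts, and unfolding free energy was derived against a sequence-predicted unfolded-state K50 and a shared folded-state K50, per protease or combined. Only designs with AlphaFold2 dimer inter-PAE above 15 were kept.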

[2] = folding stability dG unfold from trypsin proteolysis; higher = more stable
How it was run: as §1

[3] = folding stability dG unfold (combined trypsin and chymotrypsin); higher = more stable
How it was run: as §1

Sequence | folding stability dG unfold [1] | folding stability dG unfold [2] | folding stability dG unfold [3]
SLSITVPPDKGLVLVNEGLKDGKVKLFLDDKVEEVEVPAGETLVFEVPPDYKGFKLEVIGDDGVVLSVDGSA [r9_143_TrMRF] | 0.322 ± 0.29 kcal/mol | 0.627 ± 0.13 kcal/mol | 0.599 ± 0.22 kcal/mol
SAGGKYKVEIIDPKEGEKVFIEIDEETKKITIWNAKTGEKVAEFEIKDLKEGDTITLPNGFVIKIEKESAGG [r13_720_TrROS_Hall] | 4.67 ± 0.079 kcal/mol | 3.67 ± 0.14 kcal/mol | 4.61 ± 0.12 kcal/mol
SMKILIVTKEKAEELAEAIKKKFPNIEIEVFDTPEEAEEAAKKGDIVIVIGSEEEAKELAKKLKVKVIKISA [r9_380_TrROS_Hall] | 3.39 ± 0.12 kcal/mol | 2.19 ± 0.09 kcal/mol | 2.86 ± 0.45 kcal/mol
SAGGSAGGSAGGPPKWVIFIMIEIRPVTVEVYDPKNGEPLMEKPVWVIKIKIFLFKPGDFSAGGSAGGSAGG [r7_573_TrROS] | 4.82 ± 0.13 kcal/mol | 3.07 ± 0.081 kcal/mol | 4.54 ± 0.13 kcal/mol
SAGGSAGGSAGGMPDGAEFELEFEFELPDGYRVRLRIRARIGPDGVVEFEVEVEVYEVPDSAGGSAGGSAGG [r7_125_TrMRF] | 5.13 ± 0.12 kcal/mol | 4.58 ± 0.15 kcal/mol | 5.01 ± 0.13 kcal/mol
SVTITKDGNKITVTLSVNGPFTLQVNKESSTSSFSVPADESATLTIDVPNTTYKVVVEKPGQPVSTYDLLSA [r9_411_JUSTAS] | 2.08 ± 0.17 kcal/mol | 1.8 ± 0.12 kcal/mol | 1.97 ± 0.23 kcal/mol
SAGGAFAVVDAGDKVITITVYNPDGELVAPAEIPVLDPETGESDALNIPLEELEKLAGVPIELEPAGSAGGS [r16_778_TrMRF] | 1 ± 0.025 kcal/mol | 0.977 ± 0.059 kcal/mol | 1.03 ± 0.1 kcal/mol
SAGKKTITVEIVVENLTEEEIEEKIREKLKEAGLKVEVVKVEIVKVEEVDGKKYLVVKVEIKIEPEEESAGG [r19_325_TrROS_Hall] | 2.87 ± 0.084 kcal/mol | 3.5 ± 0.18 kcal/mol | 3.06 ± 0.12 kcal/mol
SAGGSAGGSAGGSAPNVKLKVEVVTVKVENAKITLPDGRTITLKPGDTVTITKVTLEPASAGGSAGGSAGGS [r4_26_TrROS_Hall] | 2.05 ± 0.085 kcal/mol | 2.32 ± 0.088 kcal/mol | 2.04 ± 0.22 kcal/mol
SAGGSMPPETEVTVTVEEFEEDPSRRLRVTITTPDGTVVTTDLENPGELSPEEEARIAALAAALAASAGGSA [r2_17_JUSTAS] | 1.96 ± 0.027 kcal/mol | 0.486 ± 0.026 kcal/mol | 1.58 ± 0.055 kcal/mol
SKMKIKIEVEKVEDGYLKITITAESKEEAEKAIKELAKKLFGIEEVKVEYDKETKKITVEIIIRPPGEKVSA [r9_1120_TrROS_Hall] | 3.61 ± 0.18 kcal/mol | 2 ± 0.17 kcal/mol | 2.95 ± 0.35 kcal/mol
SAGGPKWVIIIEIEIKPKNNGKEFEFTFVFPPGQTLDEIKSFIKEFAPPGHKVELKIEDIQLVPPDDSAGGS [r16_393_TrROS] | 2.41 ± 0.039 kcal/mol | 2.2 ± 0.15 kcal/mol | 2.4 ± 0.12 kcal/mol
SAGGSAGGPEVTITVEEKDGYLVLTVTVPPGVERLELTIEVNGKLVTLELELKPGQTLTFVLPPSAGGSAGG [r6_971_TrROS_Hall] | 3.86 ± 0.12 kcal/mol | 4.6 ± 0.3 kcal/mol | 3.97 ± 0.13 kcal/mol
SAGGSAGGSKLKLEIPPGFKNVEIEVLKYNPDNGYIRVKITIYDPNNGKQFTMDRWIPADDLKSAGGSAGGS [r12_964_TrROS] | 1.65 ± 0.16 kcal/mol | 1.62 ± 0.099 kcal/mol | 1.56 ± 0.19 kcal/mol
SAGGSAGGMEEVLALLKELGLEVKSVDIKSPDKVIVYIKPKDEKKLEELKKAVPKSLVDEIGLESAGGSAGG [r6_84_JUSTAS] | 0.455 ± 0.15 kcal/mol | -0.0936 ± 0.083 kcal/mol | 0.275 ± 0.13 kcal/mol
SAGMTVTLTVSEAEFNALFGPDKDAEAIAAHLESQGYVIKSISTTSSTDPETGGRTLTITLDVEPPLVSAGG [r19_376_JUSTAS] | 3.603 ± 0.036 kcal/mol | 3.29 ± 0.09 kcal/mol | 3.54 ± 0.071 kcal/mol
SAGGSAGGSAGVNPNLPNYSVVPTTVTVKVLETFTDPQGNSYTREFTLEVETLIVNPPLLSAGGSAGGSAGG [r17_523_JUSTAS] | 3.91 ± 0.084 kcal/mol | 2.89 ± 0.12 kcal/mol | 3.59 ± 0.12 kcal/mol
SAGGFEITEEREAVKTSPPEGPLRVEERLVIEVKSEDPEKALEEAQKETGLPVEVEVDPETGSVTITVRSAG [r5_907_JUSTAS] | 0.766 ± 0.11 kcal/mol | -0.523 ± 0.56 kcal/mol | 0.448 ± 0.18 kcal/mol
SAGGKEKYKVIEIKVKPEDVTAEELQAELEKKGYEIYVDGKKIKPGESVEDLLAKNPNATLTIVVKESAGGS [r8_38_TrROS_Hall] | 1.94 ± 0.11 kcal/mol | 0.925 ± 0.17 kcal/mol | 1.71 ± 0.2 kcal/mol
SAGGERKVKIEVMWNPDDPNYYMISVKFPGQERQFMIDPNDPERIIEFLEDLLGPGYKVDDIEIHPFRSAGG [r13_519_TrROS] | 1.61 ± 0.053 kcal/mol | 1.562 ± 0.012 kcal/mol | 1.67 ± 0.051 kcal/mol
SAGMVVVEIRTRDGRTLTVEVEAESEEEAERLARELAEELRRKFPDLEIRVERVEPPEPPEEVVEEEEESAG [r5_950_TrROS_Hall] | 3.41 ± 0.13 kcal/mol | 3.23 ± 0.13 kcal/mol | 3.42 ± 0.21 kcal/mol
